The results in this text go back to article PMC7785020, “A unique hormonal recognition feature of the human glucagon-like peptide-2 receptor” (Cell Research, 2020).

Assay [1] has as its target GLP-2R Y182^1.43A (human) (UniProt O95838). The assay is described as follows: radioligand binding; competition on transiently transfected COS-7 cells: unlabeled GLP-2(1–33) 0.1 nM to 1 μM against 10–15 pM [125I]GLP-2(1–33, M10Y); 4 h, 4 °C; 50 mM HEPES pH 7.4, 1 mM CaCl2, 5 mM MgCl2, 0.5% BSA; three-parameter logistic fit.
Target sequence in this assay (O95838 whole entry Y182A): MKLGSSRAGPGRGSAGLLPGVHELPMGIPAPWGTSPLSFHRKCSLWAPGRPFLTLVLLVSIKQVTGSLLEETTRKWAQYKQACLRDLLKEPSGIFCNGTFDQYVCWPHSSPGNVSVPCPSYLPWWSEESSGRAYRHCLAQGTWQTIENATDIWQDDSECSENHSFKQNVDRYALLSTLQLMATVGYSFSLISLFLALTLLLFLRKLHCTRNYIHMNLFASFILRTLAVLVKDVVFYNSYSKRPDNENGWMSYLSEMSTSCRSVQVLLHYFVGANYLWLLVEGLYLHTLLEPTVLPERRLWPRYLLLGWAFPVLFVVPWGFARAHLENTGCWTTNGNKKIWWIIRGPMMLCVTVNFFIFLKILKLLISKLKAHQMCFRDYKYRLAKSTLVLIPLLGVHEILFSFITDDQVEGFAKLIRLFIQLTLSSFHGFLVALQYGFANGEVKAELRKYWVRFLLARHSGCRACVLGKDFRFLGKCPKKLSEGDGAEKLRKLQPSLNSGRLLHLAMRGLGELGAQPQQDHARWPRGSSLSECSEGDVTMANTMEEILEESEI
The target in assay [2] is GLP-2R D244^ECL1A (human) (UniProt O95838). The description is as above.
Target sequence in this assay (O95838 whole entry D244A): as the sequence (O95838 whole entry Y182A) above, with A182Y, D244A counted along it
For assay [3], the target named is GLP-2R ECL1 (GLP-1R) (UniProt O95838). The assay is described as above.
Chain of GLP-2R ECL1 (GLP-1R) (O95838 whole entry): as the sequence (O95838 whole entry Y182A) above, with A182Y counted along it
The target of assay [4] is Human GLP-2R WT (1–553) (human) (UniProt O95838). Described as above.
Assay [5] addresses GLP-2R ECL1 (poly-alanine) (human) (UniProt O95838). Described as above.
Assay [6] concerns the target GLP-2R H268^3.37A (human) (UniProt O95838). The assay is described as above.
In assay [7] the target is GLP-2R R344^5.40A (human) (UniProt O95838). The assay is described as above.
Assay [8] addresses GLP-2R Y182^1.43A (human) (UniProt O95838). Kind of assay: radioligand binding; competition on transiently transfected COS-7 cells: unlabeled teduglutide 0.1 nM to 1 μM against 10–15 pM [125I]GLP-2(1–33, M10Y); 4 h, 4 °C; 50 mM HEPES pH 7.4, 1 mM CaCl2, 5 mM MgCl2, 0.5% BSA; three-parameter logistic fit.
Assay [9] has as its target GLP-2R D244^ECL1A (human) (UniProt O95838). The assay is described as above.
For assay [10], the target named is GLP-2R ECL1 (GLP-1R) (UniProt O95838). Described as above.
Assay [11] concerns the target GLP-2R N334^ECL2 A (human) (UniProt O95838). The assay is described as above.
Assay [12] has as its target GLP-2R N247^ECL1A (human) (UniProt O95838). The assay is described as above.
In assay [13] the target is GLP-2R W249^ECL1A (human) (UniProt O95838). The assay is described as above.
The target in assay [14] is GLP-2R K414^7.35 A (human) (UniProt O95838). Described as above.
Assay [15] deals with GLP-2R W340^5.36A (human) (UniProt O95838). The description is as above.

Chain of GLP-2R ECL1 (poly-alanine) (human) (O95838 whole entry): as the sequence (O95838 whole entry Y182A) above, with A182Y counted along it
Chain of GLP-2R H268^3.37A (human) (O95838 whole entry H268A): as the sequence (O95838 whole entry Y182A) above, with A182Y, H268A counted along it

Consider [^125I]GLP-2(1–33, M10Y) (peptide), for which the % Binding of WT came to 3.4% in [1]; 69.1% in assay [2]; 3.4% with GLP-2R ECL1 (GLP-1R) [3]; 99.2% in assay [4]; 3% in assay [5]; 2.1% in [6]. Moreover, the % Binding of WT came to 5% in assay [7]; 3.2% in [8]; 77.5% in [9]; 1.2% in the assay with GLP-2R ECL1 (GLP-1R) [10]; 2% in assay [11]; 135% in assay [12]. Besides, the results for the % Binding of WT in assay [13], in [14] and in assay [15] were 2.9%, 13.9% and 8.6%, respectively.
